The values that follow come from patent publication US20050037339A1.

The Kd is a measure of binding affinity in units of concentration.

In experiment [1] the target is ErbB2 on cells (SKBR3 high, SK-OV-3 moderate, MCF7 low expression) (human) (UniProt P04626). Description: cell-based or functional assay.
For experiment [2] the target is unchanged. Description: FACS on SKBR3 cells, anti-M13 and streptavidin-PE detection.
The target is the same in experiment [3]. Description: 3.0×10^11 cfu on SKBR3 cells 2 h at 37 °C, stripping buffer wash titered on E. coli TG1.
Experiment [4] has the same target.
The target is the same in experiment [5]. This is another data set of the same source.
The target of experiment [6] is recombinant ErbB2 extracellular domain (UniProt P04626). Description: SPR (BIAcore).
For experiment [7], the target named is ErbB2 on cells (SKBR3 high, SK-OV-3 moderate, MCF7 low expression) (human) (UniProt P04626). Description: 5.0×10^11 phage on ErbB2 expressing SKBR3 cells at 37 °C, low pH glycine eluate titered on E. coli TG1.

Where two headings read alike, the source gives them in different places.

Sequence of C6.5 scFv phage (fd) (P03661 19-424): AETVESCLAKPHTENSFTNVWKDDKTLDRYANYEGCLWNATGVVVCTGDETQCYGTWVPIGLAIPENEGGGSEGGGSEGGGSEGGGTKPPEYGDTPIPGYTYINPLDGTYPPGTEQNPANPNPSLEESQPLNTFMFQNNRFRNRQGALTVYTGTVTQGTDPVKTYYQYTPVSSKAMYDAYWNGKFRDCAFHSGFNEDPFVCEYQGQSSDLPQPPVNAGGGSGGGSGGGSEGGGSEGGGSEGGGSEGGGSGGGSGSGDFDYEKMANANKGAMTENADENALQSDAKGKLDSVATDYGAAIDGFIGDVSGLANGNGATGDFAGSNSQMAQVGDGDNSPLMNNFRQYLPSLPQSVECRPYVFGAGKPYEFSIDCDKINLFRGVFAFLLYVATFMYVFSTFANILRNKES
Sequence of fd-F5 phage (multivalent) (P03661 19-424): as above
Sequence of C6.5 scFv phagemid (P69168 19-424): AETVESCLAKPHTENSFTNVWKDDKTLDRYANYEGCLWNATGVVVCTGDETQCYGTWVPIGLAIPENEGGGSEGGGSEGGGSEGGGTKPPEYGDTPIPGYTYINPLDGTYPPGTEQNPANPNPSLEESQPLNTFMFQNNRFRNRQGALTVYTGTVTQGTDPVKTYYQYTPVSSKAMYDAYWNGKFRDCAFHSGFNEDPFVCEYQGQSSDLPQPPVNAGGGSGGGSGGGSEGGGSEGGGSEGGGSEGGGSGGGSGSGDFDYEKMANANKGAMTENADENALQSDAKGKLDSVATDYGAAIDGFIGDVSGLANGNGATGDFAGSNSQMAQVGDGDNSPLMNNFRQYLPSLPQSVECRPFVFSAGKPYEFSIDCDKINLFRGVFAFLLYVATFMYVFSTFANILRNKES
Sequence of C6.5 diabody phagemid (P69168 19-424): as above
Sequence of anti-botulinum scFv phagemid (clone 3D12) (P69168 19-424): as above
Sequence of F5-phagemid (monovalent) (P69168 19-424): as above
Sequence of C6ML3-9 scFv phagemid (P69168 19-424): as above

In experiment [1], “fd-F5 phage (multivalent) (from UniProt P03661 19-424) (scFv)” registered a % of GFP positive cells (SKBR3, 48 hours; 1.25 ng reporter plasmid DNA) of 0.57%; a % of GFP positive cells (SKBR3, 48 hours; 2.25 ng reporter plasmid DNA) of 0.87%; a % of GFP positive cells (SKBR3, 48 hours; 5 ng reporter plasmid DNA) of 1.69%. In experiment [2], this substance registered a lowest phage concentration at which binding could be detected of 1e+08 cfu/ml.

In experiment [3], “C6.5 scFv phagemid (from UniProt P69168 19-424)” registered a Cell Surface Phage Titer, 1st Wash of 6e+07 cfu; a Cell Surface Phage Titer, 2nd Wash of 9.6e+06 cfu; a Cell Surface Phage Titer, 3rd Wash of 760000 cfu. In addition, in experiment [1], the Intracellular Phage Titer was found to be 5.2e+06 cfu; the enrichment of C6.5 scFv phagemid over wild type fd phage in the cell lysate, with trypsinization came out at 209 fold; the enrichment of C6.5 scFv phagemid over wild type fd phage in the cell lysate, without trypsinization was 6.1 fold; the input titer below which phagemid could not be recovered from within SKBR3 cells (input phage titer) was determined as 300000.

Regarding “anti-botulinum scFv phagemid (clone 3D12) (from UniProt P69168 19-424)”, in experiment [4], the titer of cell surface bound phage, 1st glycine wash stood at 600000 phage titer and the titer of cell surface bound phage, 2nd glycine wash amounted to 100000 phage titer. In experiment [1], this substance registered an Intracellular Phage Titer of 1.5e+06 cfu and a Lysed cell fraction (titer of internalized phage) of 600000 phage titer. In experiment [5], the Cell Surface Phage Titer, 1st Wash turned out to be 2.8e+07 cfu; the Cell Surface Phage Titer, 2nd Wash turned out to be 3.6e+06 cfu; the Cell Surface Phage Titer, 3rd Wash is 280000 cfu.

For the substance “C6.5 scFv phage (fd) (from UniProt P03661 19-424)”, in experiment [3], the Cell Surface Phage Titer, 1st Wash was determined as 2.3e+08 cfu; the Cell Surface Phage Titer, 2nd Wash was 6.2e+07 cfu; the Cell Surface Phage Titer, 3rd Wash was determined as 5.6e+06 cfu. Besides, in experiment [1], the Intracellular Phage Titer was 2.2e+08 cfu and the input titer below which phage could not be recovered from within SKBR3 cells (input phage titer) is 30000.

Take native anti-ErbB2 F5 scFv: the Kd in experiment [6] was found to be 160 nM.

As to “F5-phagemid (monovalent) (from UniProt P69168 19-424) (scFv)”, in experiment [1], the % of GFP positive cells (SKBR3, 48 hours; 0.78 µg reporter plasmid DNA) came out at 0.64%; the % of GFP positive cells (SKBR3, 48 hours; 3.1 µg reporter plasmid DNA) was determined as 1.44%; the % of GFP positive cells (SKBR3, 48 hours; 15 µg reporter plasmid DNA) amounted to 3.84%; the GFP expressing SKBR3 cells after 48 hrs (FACS) came to 1.37%. In experiment [1], the GFP expressing SKBR3 cells in a co-culture of SKBR3 and MCF7 cells (FACS) was 1.91%; the GFP positive SKBR3 cells at the minimal phage concentration amounted to 0.12%; the maximum percentage of GFP positive SKBR3 cells in the time course turned out to be 4.5%. Also, the lowest phage concentration at which binding could be detected in experiment [2] was found to be 1e+10 cfu/ml.

In experiment [3], “C6.5 diabody phagemid (from UniProt P69168 19-424)” returned a Cell Surface Phage Titer, 1st Wash of 1.8e+08 cfu; a Cell Surface Phage Titer, 2nd Wash of 1.2e+07 cfu; a Cell Surface Phage Titer, 3rd Wash of 1.3e+06 cfu. In experiment [1], this substance yielded an Intracellular Phage Titer of 4.5e+07 cfu; a Lysed cell fraction (titer of internalized phage) of 1.7e+07 phage titer; a cells with internalized phage (confocal microscopy, SKBR3 cells) of 20%; an input titer below which phage could not be recovered from within SKBR3 cells (input phage titer) of 30000. In experiment [7], the titer of cell surface bound phage, 1st glycine wash is 1.8e+07 phage titer and the titer of cell surface bound phage, 2nd glycine wash was found to be 2.8e+06 phage titer.

In experiment [1], C6.5cys scFv conjugated to liposomes yielded a Total uptake of scFv-conjugated liposomes by SKBR3 cells of 3.4 and a share of the liposome uptake that was internalized (SKBR3 cells) of 70%.

With C6.5 phage (Example 2) (scFv), the Lysed cell fraction (titer of internalized phage) in experiment [1] was 6.8e+07 phage titer. Also, in experiment [7], the titer of cell surface bound phage, 1st glycine wash came to 1.2e+07 phage titer and the titer of cell surface bound phage, 2nd glycine wash stood at 5.2e+06 phage titer.

In experiment [3], “C6ML3-9 scFv phagemid (from UniProt P69168 19-424)” yielded a Cell Surface Phage Titer, 1st Wash of 2.5e+08 cfu; a Cell Surface Phage Titer, 2nd Wash of 1.4e+07 cfu; a Cell Surface Phage Titer, 3rd Wash of 3.2e+06 cfu. In experiment [1], this substance showed an Intracellular Phage Titer of 2.7e+07 cfu and an input titer below which phagemid could not be recovered from within SKBR3 cells (input phage titer) of 3e+06.
